Measured values taken from publication PMC5670239, “Structural basis for mutually exclusive co-transcriptional nuclear cap-binding complexes with either NELF-E or ARS2” (Nature Communications, 2017).

How the values were obtained:
CBC = biological target: T1, CBC (Homo sapiens, UniProt P52298); experiment: ITC, binding to CBC without cap analogue; conditions: ITC (MicroCal ITC200), 25 °C, 20 mM HEPES, 120 mM NaCl, 2 mM TCEP, pH 7.8, single-site fit; no cap analogue pre-bound; mean ± SD of at least two independent experiments; SD
T1 sequence (P52298 1-156): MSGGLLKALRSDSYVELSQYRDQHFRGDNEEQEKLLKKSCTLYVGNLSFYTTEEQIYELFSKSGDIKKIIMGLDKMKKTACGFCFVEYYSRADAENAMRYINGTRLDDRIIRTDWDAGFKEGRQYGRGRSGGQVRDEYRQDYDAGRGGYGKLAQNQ
T1 sequence (Q09161 20-790 partner): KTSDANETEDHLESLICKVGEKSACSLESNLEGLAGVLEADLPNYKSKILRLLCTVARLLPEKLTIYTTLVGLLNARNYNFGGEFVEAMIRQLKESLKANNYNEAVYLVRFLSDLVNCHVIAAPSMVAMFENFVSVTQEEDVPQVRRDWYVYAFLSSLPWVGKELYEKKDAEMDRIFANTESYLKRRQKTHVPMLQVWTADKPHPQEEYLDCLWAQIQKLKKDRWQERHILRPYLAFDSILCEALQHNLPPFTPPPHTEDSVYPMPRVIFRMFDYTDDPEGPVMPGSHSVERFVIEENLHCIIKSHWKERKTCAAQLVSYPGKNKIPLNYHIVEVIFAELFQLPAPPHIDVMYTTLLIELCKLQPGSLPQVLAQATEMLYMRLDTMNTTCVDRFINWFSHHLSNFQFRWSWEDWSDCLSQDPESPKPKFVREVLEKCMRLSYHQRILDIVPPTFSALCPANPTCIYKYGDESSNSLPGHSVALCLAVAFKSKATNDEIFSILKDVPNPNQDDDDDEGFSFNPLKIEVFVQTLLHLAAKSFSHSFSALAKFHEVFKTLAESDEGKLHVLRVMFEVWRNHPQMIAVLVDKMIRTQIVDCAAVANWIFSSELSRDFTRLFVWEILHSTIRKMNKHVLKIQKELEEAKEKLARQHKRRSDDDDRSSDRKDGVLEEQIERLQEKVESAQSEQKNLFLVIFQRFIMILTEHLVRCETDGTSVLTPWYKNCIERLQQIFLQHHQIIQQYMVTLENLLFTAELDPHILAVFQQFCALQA
Text: (§1) hARS2 isoform-4 (871 residues, UniProt:Q9BXP5-4, also known as isoform-e, NP_001122326) constructs (residues 147–871, 147–845, 763–871, 763–845, 827–871) hNELF-E (NM_002904.5) (244–380, 244–360) and hPHAX (NM_032177.3) (1–394, 103–294, 103–308, 103–327) were cloned into pETM11 (EMBL). Full-length hNELF-E (1–380) was cloned into pFASTBac and CBP20 into pETM30. Primers used are given in Supplementary Table 2. All constructs were expressed in E. coli Rosetta 2 (Novagen), except full-length NELF-E and CBP80ΔNLS (CBP80 with residues 1–19 deleted[2]), which were expressed in High Five insect cells (Life Technology). Cells were harvested and lysed by sonication in lysis buffer containing 50 mM HEPES, pH 7.8, 300 mM NaCl, 10% (v/v) glycerol, 5 mM β-mercaptoethanol. Lysates were clarified by centrifugation and applied on an equilibrated Ni-sepharose column (GE Healthcare), washed with 20 mM imidazole in lysis buffer, and eluted with 300 mM imidazole in lysis buffer. While dialysing into 20 mM HEPES, pH 7.8, 120 mM NaCl, 10% (v/v) glycerol, 5 mM β-mercaptoethanol, the N-terminal 6-histidine-tag was cleaved with His-tagged Tobacco Etch Virus (TEV) protease overnight in a ratio 1:100 mg TEV per mg protein. The cleaved protein was further purified first on Ni-sepharose to remove TEV and then using an anion exchange column (HiTrap Q, GE Healthcare) followed if necessary by a Heparin column (GE Healthcare). In both cases a NaCl gradient from 50 to 800 mM in 20 mM HEPES 7.8, 0.5 mM tris(2-carboxyethyl)phosphine was used. To reconstitute the CBC heterodimer, cleared His-tagged CBP20 lysate was first immobilised on a Ni-sepharose column. After washing the column with lysis buffer, the cleared CBP80 lysate was applied to the column and further purification steps performed as described above. To remove the access of CBP20 the flow through of the Ni-column after TEV cleavage was loaded on an anion exchange column (HiTrap Q, GE Healthcare) and CBC eluted by a NaCl gradient as described above. In the text we refer to CBP80ΔNLS and CBP80ΔNLS-CBP20 as CBP80 and CBC, respectively. ARS2^845–871, NELF-E^354–380, and NELF-E^360–380 peptides, with or without FAM label at the N-terminus, were purchased from GenScript.

m^7GTP-CBCmut = experiment: ITC, binding to mutated CBC in the presence of m^7GTP; set-up: species or system human; conditions: 25 °C, pH 7.8, CBCmut = CBP20 Y50A + CBP80 Y461A/R610E/H651A, with m^7GTP, mean ± SD of 2 experiments
Protocol: For CBC, a triple mutant in CBP80 (Y461A/R610E/H651A) was combined with various mutations in CBP20 (Y50A, Y50A/Y89A, or Y50A/Y89A/D107R).
ITC experiments were performed on a MicroCal ITC200 system (Malvern). Proteins were dialyzed overnight in buffer 20 mM HEPES, 120 mM NaCl, 2 mM tris(2-carboxyethyl)phosphine, pH 7.8. Injections of 1.5 µl protein A were added at an interval of 120–180 s into 205 µl of protein B in the cell, with a stirring speed of 800 rpm at 25 °C. The experimental data were analysed with MicroCal ITC Origin and were fitted to a single-site binding equation.

m^7GTP-CBC [1] = biological target: T2, m^7GTP-CBC (Homo sapiens, UniProt P52298+Q09161); experiment: ITC, binding to CBC in the presence of the cap analogue m^7GTP; conditions: for Kd: ITC, 25 °C, 20 mM HEPES, 120 mM NaCl, 2 mM TCEP, pH 7.8, CBC bound to m^7GTP, mean ± SD of at least two independent experiments
T2 construct: 6-histidine tag (pETM30 vector) (N, cleaved yes); made in house; host or cells: CBP20 in E. coli Rosetta 2; CBP80ΔNLS in High Five insect cells; heterodimer reconstituted on Ni-sepharose
T2 sequence (Q09161 20-790): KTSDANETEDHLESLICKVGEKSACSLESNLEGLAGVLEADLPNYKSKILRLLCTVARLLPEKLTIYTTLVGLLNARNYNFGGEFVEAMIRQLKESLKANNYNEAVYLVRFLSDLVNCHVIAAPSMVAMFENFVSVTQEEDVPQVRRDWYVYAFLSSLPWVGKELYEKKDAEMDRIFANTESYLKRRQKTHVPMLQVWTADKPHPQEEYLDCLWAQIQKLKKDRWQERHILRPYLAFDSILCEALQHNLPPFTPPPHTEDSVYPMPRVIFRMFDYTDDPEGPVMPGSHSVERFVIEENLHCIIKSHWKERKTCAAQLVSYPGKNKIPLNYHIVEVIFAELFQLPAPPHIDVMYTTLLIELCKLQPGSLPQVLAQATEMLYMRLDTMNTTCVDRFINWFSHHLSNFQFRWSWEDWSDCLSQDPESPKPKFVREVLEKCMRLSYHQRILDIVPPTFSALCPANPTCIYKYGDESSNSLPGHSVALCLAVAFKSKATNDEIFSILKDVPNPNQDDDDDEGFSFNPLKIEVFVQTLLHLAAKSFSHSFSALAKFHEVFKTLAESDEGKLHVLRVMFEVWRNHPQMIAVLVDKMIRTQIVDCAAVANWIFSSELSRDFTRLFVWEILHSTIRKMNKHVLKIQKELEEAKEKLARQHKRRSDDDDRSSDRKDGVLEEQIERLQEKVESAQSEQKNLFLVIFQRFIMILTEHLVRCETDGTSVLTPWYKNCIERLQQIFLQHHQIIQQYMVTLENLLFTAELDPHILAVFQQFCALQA
T2 sequence (P52298 1-156): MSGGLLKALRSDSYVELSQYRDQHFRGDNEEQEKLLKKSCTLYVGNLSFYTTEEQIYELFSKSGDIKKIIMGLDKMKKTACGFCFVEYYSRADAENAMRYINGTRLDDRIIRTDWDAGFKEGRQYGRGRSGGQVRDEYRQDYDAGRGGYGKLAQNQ
Text: as §1

m^7GTP-CBC [2] = biological target: T2, m^7GTP-CBC; experiment: Fluorescence polarisation with FAM-labelled C-terminal peptides; type: binding; conditions: competition; 40 nM FAM peptide, 60 nM CBC, 25 µM m^7GTP, 25 °C; n = 3
Protocol: Fig. 4 Incompatibility of ARS2-PHAX and NELF-E binding to CBC. a, b Competition on m^7GTP-sepharose. a In separate experiments, different amounts of ARS2^147–871 were added to preformed CBC–NELF–E complex immobilised on m^7GTP-sepharose. […] The fluorophore FAM is represented with a star. Note that different constructs of NELF-E and ARS2 were used in c, d, and e compared to f, g, and h and are therefore represented by slightly different shapes. Error bars show the SD of three experiments
Fluorescence anisotropy binding assays were performed with N-terminal FAM-labelled ARS2^845–871 and […] peptides. 40 nM peptides were titrated with increasing concentrations of proteins in 20 mM HEPES, pH 7.8, 120 mM NaCl, 2 mM tris(2-carboxyethyl)phosphine. For the competition assay CBC–ARS2 and CBC–NELF–E complexes were preformed in the presence of 25 µM m^7GTP using 40 nM ARS2^827–871(FAM) peptide together with 60 nM CBC and 40 nM NELF-E^354–380(FAM) peptide with 1 µM CBC. […] To observe a change in polarisation at reasonable protein concentrations, CBC and NELF-E^244–380 concentrations that saturate half of the FAM-labelled peptides were used to preform the individual complexes. Fluorescence polarisation was measured at 25 °C with a microplate reader (CLARIOstar BMG LABTECH) using an excitation wavelength of 495 nm and emission wavelength of 515 nm. For analysis the polarisation value for the peptide alone was subtracted from the measurements.

Kd (CBC): 400 ± 200 nM
K D (m^7GTP-CBCmut): completely abolished binding
Kd (m^7GTP-CBC [1]): ~40 nM
Kd (m^7GTP-CBC [1]; SD): 50 ± 10 nM
Enhancement of the interaction with CBC when m^7GTP is bound (m^7GTP-CBC [1]; ratio of ITC K D without / with m^7GTP): eight times higher
Change of polarisation on titration to m^7GTP-CBC-ARS2^845–871(FAM) (m^7GTP-CBC [2]): decrease in polarisation
B1: NELF-E 244–380: C-terminal human NELF-E fragment including the RRM domain, E. coli expressed (protein, UniProt P18615 244-380, looked up, fragment)
chain: GPFRRSDSFPERRAPRKGNTLYVYGEDMTPTLLRGAFSPFGNIIDLSMDPPRNCAFVTYEKMESADQAVAELNGTQVESVQLKVNIARKQPMLDAATGKSVWGSLAVQNSPKGCHRDKRTQIVYSDDVYKENLVDGF
